Measurements published in patent US11406618B2, “Polymer-des-ethyl sunitinib conjugates” (Nektar Therapeutics, priority 2010, dated 2022).

Assay: Buffer hydrolysis in phosphate buffer to monitor the release of des-ethyl sunitinib
Format: physicochemical
Conditions: 100 mM phosphate, 37° C.
Protocol: In a 10 mL round bottom flask was added (Z)—(N-(2-aminoethyl)-9-(hydroxymethyl)-9H-fluorene-2-carboxamide hydrochloride) ethyl(2-(5-((5-fluoro-2-oxoindolin-3-ylidene)methyl)-2,4-dimethyl-1H-pyrrole-3-carboxamido)ethyl)carbamate dihydrochloride (Compound 2a) (4.83 mg, 6.42 μmol). The solids were dissolved in anhydrous tetrahydrofuran (0.4 mL) and 1,4 dioxane (0.2 mL). mPEG-SPA 20K (100.4 mg, 5.02 μmol) was added. Anhydrous acetonitrile (0.2 mL) was added to dissolve the PEG. After the PEG dissolved, triethylamine (5.2 μL, 0.037 mmol) was added. At 1 hour, the reaction solvent was evaporated at reduced pressure to a dry solid. The product was redissolved in anhydrous acetonitrile (0.5 mL) and precipitated by slow addition of anhydrous IPA (8 mL total). The product was washed with anhydrous IPA (50 mL) and diethyl ether. Residual solvent was evaporated at reduced pressure. Yield was 75 mg yellow powder (75% yield). HPLC analysis was on C18 applying an acetonitrile gradient with 0.1% TFA; retention times were desethyl sunitinib (compound 1) 2.5 minutes and product at 10.7 minutes. Buffer hydrolysis was performed to monitor the release of des-ethyl sunitinib (100 mM phosphate, 37° C.): 36 days at pH 7.5, 3.6 days at pH 8.5.
In a 10 mL round bottom flask was added Compound 2b (9.6 mg, 0.013 mmol). The solids were suspended in anhydrous acetonitrile (0.37 mL) and 1,4 dioxane (0.37 mL). mPEG-SPA 20K (181.3 mg, 9.07 μmol) was added. After the PEG dissolved, triethylamine (9.24 μL, 0.066 mmol) was added. At one hour, the product was precipitated by slow addition of anhydrous IPA (10 mL). The solid was washed with anhydrous IPA (25-30 mL) and then washed with diethyl ether. Residual solvent was evaporated at reduced pressure. Yield was ˜120 mg yellow powder. The product was transferred to a 50 mL round bottom flask. More Compound 2b (6.9 mg, 9.18 μmol) was added. Anhydrous acetonitrile (0.25 mL) and anhydrous 1,4 dioxane (0.25 mL) and anhydrous pyridine (2.2 μL, 0.027 mmol) were added. The reagents never fully dissolved, therefore triethylamine (6 μL, 0.043 mmol) was added. The solution was a clear orange color. After 45 minutes, the product was precipitated by slow addition of anhydrous IPA (˜10 mL). The solid was washed with anhydrous IPA (˜25-30 mL) and then washed with diethyl ether. Residual solvent was evaporated at reduced pressure. Yield was ˜68 mg (57%) yellow powder. HPLC analysis was on C18 applying an acetonitrile gradient with 0.1% TFA; retention times were desethyl sunitinib (compound 1) 2.5 min and product at 10.7 min. Buffer hydrolysis was performed to monitor the release of des-ethyl sunitinib (100 mM phosphate, 37° C.): 22 days at pH 7.5, 1.4 days at pH 8.5.
Experiments were carried out to measure drug release from the polymer conjugates. A typical plot of the data showing the decay of the polymer conjugate (FIG. 1) and the build-up of drug with time (FIG. 2) are included.
In a 10 mL round bottom flask was Compound 2c (7.4 mg, 7.69 μmol) was suspended in anhydrous dioxane (0.5 mL) and anhydrous acetonitrile (0.5 mL). mPEG-SPA 20K (100.0 mg, 5.0 μmol) was added. After the PEG dissolved, triethylamine (7.2 μL, 0.052 mmol) was added. At thirty minutes, anhydrous acetonitrile (0.5 mL) and anhydrous methanol (0.3 mL) were added. At two hours total reaction time, the product was precipitated by slow addition of anhydrous IPA containing 0.25% phosphoric acid. The product was washed with anhydrous IPA and then washed with diethyl ether. Residual solvent was evaporated at reduced pressure. Yield: 58 mg (58%) yellow powder. HPLC analysis employed a C18 column using an acetonitrile gradient with 0.1% TFA; retention times were des-ethyl sunitinib 2.5 min and product 10.7 minutes with 41% purity at 320 nm. Buffer hydrolysis was done to monitor the release of desethyl sunitinib (100 mM phosphate, 37° C.): 11 d at pH 7.5, 1.7 d at pH 8.5.

Substance | Buffer hydrolysis, release of des-ethyl sunitinib at pH 7.5 (pH 7.5) [days] | Buffer hydrolysis, release of des-ethyl sunitinib at pH 8.5 (pH 8.5) [days] | Buffer hydrolysis, release of desethyl sunitinib at pH 7.5 (pH 7.5) [d] | Buffer hydrolysis, release of desethyl sunitinib at pH 8.5 (pH 8.5) [d]
(Z)-(9-(hydroxymethyl)-N-(2-β-(mPEG 20,000)propanamido)ethyl)-9H-fluorene-4-carboxamide) ethyl(2-(5-((5-fluoro-2-oxoindolin-3-ylidene)methyl)-2,4-dimethyl-1H-pyrrole-3-carboxamido)ethyl)carbamate [Compound 3b] | 22 | 1.4 | – | –
(Z)-(9-(hydroxymethyl)-N-(2-β-(mPEG 20,000)propanamido)ethyl)-9H-fluorene-2-carboxamide) ethyl(2-(5-((5-fluoro-2-oxoindolin-3-ylidene)methyl)-2,4-dimethyl-1H-pyrrole-3-carboxamido)ethyl)carbamate [Compound 3a] | 36 | 3.6 | – | –
(Z)-(9-(hydroxymethyl)-N2-(2-(2-(2-methoxyethoxy)ethoxy)ethyl)-N7-(2-β-(2-(mPEG 20,000))propanamido)ethyl)-9H-fluorene-2,7-dicarboxamide) ethyl(2-(5-((5-fluoro-2-oxoindolin-3-ylidene)methyl)-2,4-dimethyl-1H-pyrrole-3-carboxamido)ethyl)carbamate [Compound 3c] | – | – | 11 | 1.7
